Assay: soluble on expression in E. coli; label from the status in PepcDB or PDB records

| Sequence | soluble on expression in E. coli |
| --- | --- |
| NNNLTWNIYANMTWNKNKIIKLSTDEPIEYTYQIIEEGRPYRQFYMKEYAGVDRENGKPLWYLNEEGNETTSDYNAAAKRYVGDADPKVLGGFGTNLSWKGFDFNMNFTYRLGGKVFDSGASFTGFGMANRTPLKDVALNSWTEENKDAKYPQYIYGDPNKATQTSSRFLYSSNFLRISNMTLGYTVPVNLTKKIFIQKLRAYISIDNLYTFTSNDFVGYNPETYSNGVIAWQYPATRTFIGGIQLSF | not soluble |
| NPVENYIDEVLNEVLVVPNINSSNPTTSNSAPALDAAETGHTSSVQPEDVIETRYVQTSQTRDEMSLESFLGRSGCIHESKLEVTLANYNKENFTVWAINLQEMAQIRRKFELFTYTRFDSEITLVPCISALSQDIGHITMQYMYVPPGAPVPNSRDDYAWQSGTNASVFWQHGQAYPRFSLPFLSVASAYYMFYDGYDEQDQNYGTANTNNMGSLCSRIVTEKHIHKVHIMTRIYHKAKHVKAWCPRPPRALEYTRAHRTNFKIEDRSIQTAIVTRPIITTAGPSDMY | soluble |
| NSSGVNRVVGNNLDDLALPKLAKDQTNPMTMEELTTRFLRSDSATFDGTVVEVQGFASAAADGTWRLSRYKIYCCAADAMAYTATLETSTSMSSDQWYRVRGVVRVSSAHNPQFPMIEVHNLEAIDTPTEPYL | not soluble |
| NTLGMALYADGGLMASKPYAASGKYIHRMSNFCQSCYYNPNDLLGEKACPFNALYWNFLHQNQEKLKDNPRLRYAYMNWQKMDFDKQKKTIHKAQRILADLDSANL | not soluble |
| PAAQSCAARVGAPLVNDTVSISLSDHLTDMPTIESRLHAAAKEGFTITIYNPWSRKRRDNYEKCCEILLEHRDPETPVGVVHAAGREDEQVEIVELGELPELGETDLVDMTTTLLVGNEDTY | not soluble |
| PATDIMFPHSSMELVEGIYKHNQVADYFNKVLADTLLAYLDERLKHDPEASIRIMEIGAGTGGTSAGIFEKLKPYQKHINEYCYTDLSKAFLLHAEKEYGAENPYLTYQLFDVEKPIDQQEFEAGGYDVVIAANVLHATKNIRQTLRHTKAVMKNNGMLLLNEMAGNSLFPHITFGLLEGWWLYEDPAVRIPGCPGLHPDSWKAALESEGFESVFF | not soluble |
| PEREAVALVGTRRASPWALAFARRLARELAEAGLWVVSGLARGIDREAHLGALEAGGRTLGVLGSALDRVYPPENRPLAQRMDLLSEFPFGTGPKPEFFPRRNRLIAGLCRAVVVVEAPLDSGALITARHALELGKEVLAVPGRPTDERSLGANRLIQDGAYPVLSAEDVLSYLGMSARP | not soluble |
| PFMDQSGGGVTFCGGEPLLHPEFLIDILKRCGQQGIHRAVDTTLLARKETVDEVMRNCELLLIDLKSMDSTVHQTFCDVPNELILKNIRRVAEADFPYYIRIPLIEGVNADEKNIKLSAEFLASLPRHPEIINLLPYHDIGKGKHAKLGSIYNPKGYKMQTPSEEVQQQCIQILTDYGLKATIGG | soluble |
| PGATPMSLGLFSPTILLPDSAREWPPERQRLVLLHEMAHLKHRDLLLGLVGQLGRALHWPNPLAWTGWSKLLQAREAACDETVLAAGEDPETYAHQLLAAAR | not soluble |
| PKHGKRYRALLEKVDPNKIYTIDEAAHLVKELATAKFDETVEVHAKLGIDPRRSDQNVRGTVSLPHGGRIEFRNDKTGAIHAPVGKASFPPEKLADNIRAFIRALEAHKPEGAKGTFLRSVYVTTTMGPSVRINPHS | soluble |
| PLPIPPPPPDIQPLERYWAAHQQLRETDIPQLSQASRLSTQQVLDWFDSRLPQPAEV | soluble |
| PLTEAQKNKLRHLSVVTLAAKVKCIPYAVLLEALALRNVRQLEDLVIEAVYADVLRGSLDQRNQRLEVDYSIGRDIQRQDLSAIARTLQEW | not soluble |
| PMSEIVRVHASSGTTGKPTVVGYTRRDIAMWSEVVARALNCAGASREDFIQIAYGYGLFTGGLGLHYGSEKLGATVIPISGGNTQKQVQLMADFKTTVLACTPSYALYLAESLEEAGMTTDDISLRVGIFGAEPWTPGMRKEIEIKLGIKAMDIYGLSEVMGPGVACDCEYQAGLHVN | not soluble |
| PNRRADDNATIRVTNLSEDTRETDLQELFRPFGSISRIYLAKDKTTGQSKGFAFISFHRREDAARAIAGVSGFGYDHLILNVEWAKPSTN | soluble |
| PPAVSDIRVTRSSPSSLSLAWAVPRAPSGAVLDYEVKYHEKGAEGPSSVRFLKTSENRAELRGLKRGASYLVQVRARSEAGYGPFGQEHHSQTQLD | soluble |
| PQRSQRESRHLFIREAKKLCQKEFKRWFILAADVNPLMKYFKDRELPIPTLYLMGDRDYMFIQPVKEMVAAHKLSILREIPNCGHVCNVERPEDFNQHSIEFIKQQSIVA | not soluble |

| Sequence | soluble on expression in E. coli |
| --- | --- |
| PRLLCTATKQKNSGQNLEEDMGQSEQKADPPATEKTLLEEKVKLEEQLKETVEKYKRALADTENLRQRSQKLVEEAKLYGIQAFCKDLLEVADVLEKATQCVPKEEIKDDNPHLKNLYEGLVMTEVQIQKVFTKHGLLKLNPVGAKFDPYEHEALFHTPVEGKEPGTVALVSKVGYKLHGRTLRPALVGVVKEA | not soluble |
| PSARDILQQGLDRLGSPEDLASRIDSTLLSPRATEEDVRNLVREASDYGFRCAVLTPVYTVKISGLAEKLGVKLCSVIGFPLGQAPLEVKLVEAQTVLEAGATELDVVPHLSLGPEAVYREVSGIVKLAKSYGAVVKVILEAPLWDDKTLSLLVDSSRRAGADIVKTSTGVYTKGGDPVTVFRLASLAKPLGMGVKASGGIRSGIDAVLAVGAGADIIGTSSAVKVLESFKSLV | soluble |
| PTLLTARLRWTDKVTLLADPPDKAMGQRSGPWMGEAITALLRAAEREVRLITPYFVPGNDGCDLLTELAQRGVRLSIMTNALSVTDMVLVHGAYRHYRLPLLKAGAELYEFGPPPRPCGRRDLLHTKVFLIDGRQAVVGSLNFDLRSAFMNTELGVLFEEPDLFAELEAMFDRQSAPDEAHRLSLEKGRLRWSVTEEGRAALARFEPDSPPALRAVSWVVGHLPIQ | not soluble |
| PVPPLPEHGGKVRFGLIPEEFFQFLYPKTGVTGPYVLGTGLILYLLSKEIYVITPETFSAISTIGFLVYIVKKYGASVGEFADKLNEQKIAQLEEVKQASIKQIQDAIDMEKSQQALVQKRHYLFDVQRNNIAMALEVTYRERLHRVYREVKNRLDYHISVQNMMRQKEQEHMINWVEKRVVQSISAQQEKETIAKCIADLKLLSKKAQAQPVM | soluble |
| PWDSENTIYDKVDQTKRFIEDVVKSFKQNNAILGWILTNEISLVRIPQNDNIFLRWLRELYNYIKRIDDQHLISVGDNVSPFSHNFLRPENVKGIVDYASPHIYQYDQDPIRHSIRYFMILEYDRSAGLPVILEEFG | not soluble |
| PYIEIFEQPRQRGMRFRYKCEGRSAGSIPGEHSTDNNKTFPSIQILNYFGKVKIRTTLVTKNEPYKPHPHDLVGKDCRDGYYEAEFGPERRVLSFQNLGIQCVKKKDLKESISLRISKKINPFNVPEEQLHNIDEYDLNVVRLCFQAFLPDEHGNYTLALPPLISNPIYDNRAPNTAELRICRVNKNCGSVKGGDEIFILCDKVQKDDIEVRFVLDNWEAKGSFSQADVHRQVAIVFRTPPFLRDITEPITVKMQLRRPSDQEVSEPMDFRYLPD | soluble |
| QDSTSDLIPAPPLSKVPLQQNFQDNQFHGKWYVVGLAGNRILRDDQHPMNMYATIYELKEDKSYNVTSVISSHKKCEYTIATFVPGSQPGEFTLGNIKSYGDKTSYLVRVVSTDYNQYAVVFFKLAEDNAEFFAITIYGRTKELASELKENFIRFSKSLGLPENHIVFPVPIDQCIDG | soluble |
| QLERGQEKQALEQAILARTDAPYQSLASVLDNNDWREESVIGVKVQAEAKPEPLPVVLLDNQTFQGKVGYLAYQVVSVGQDPITLALLELGFVEGLRTRDSLPTVTTLTSPTNVTGRLYRKSMNPLSSELMPEMGEGIRVQNLNISELNELLNVELMPAVLQPDNLENWAYPFPWNPLPLTSAKHFGYAVQ | not soluble |
| QLPCNLSPLNWVGMQHIDLPTVIDTANQTVNTKVDVYVNLPKSSVKGIHMSRLYHLINHLSVLNTMSIKSVLKQMIDSHQDCGTTAAKIVFKFDLLLKRDAIVSTALSGWKSYPVIIEASIINELFNIEYKLDISYSSTCPCSAALSRQIIKNGFKADFSSQNLIPSADIEAWLEQYATLATPHSQRSIATVVVQPFDYAHDINFVDLIDSIENTLKTPTQTAVKRADEQAFAKLNGENLMFVEDAARRLKMLLDQKYKFWSAQVVHQESLHPHDAIAVAISS | not soluble |
| QLVWGPDLSEKASAQRTRVFVDAARRGEIYDNTGQLLAYTMQARSLTASPKQLRKEIEYTAKIELQDEKEYSSWDENQRKKKIEDKVDSYLEEYSNEIPKIIKDSEASANDIKSKDILKKLKADTSYEVLVRNVDPDVAENIAQKFHGIAADLQQIRQYPNGAVAENVIGKISQDGQGQFGFESSNNSVLSGIDGRKTLDVAASGEVIPGSLRDEVPATNGANVTLTLDLDMQTYVQQQLEQAVSNSGAQSASAVVLDVKTGKVLTMANSGTINPNGDIEKQLKDNKSFENTTISSPFEPGSVAKIITAAGVIEDGKSTPDEVLQVPGSIEMSGVNVRDAWEHGTVGYTTTGIFGKSSNVGTLMLAQRLGEQRFNDLLHRFGIGQNTGIELPVESQGLLPDISQ | not soluble |
| QMNTVFIKNEGVTEGEIATIGEHTAEISGVSTGTDWTRDYSQSGALRSLLGTVSTEKQGLPAEEVDEYLKKGYARNDRVGTSYLEKQYEDVLQGKKAKSEVVLDNNGKIVSQTPISKGEKGSNLKLTID | not soluble |
| QPKPEEKLTNNIILKKLQIALNLKADEVLDLLKLVNFRLSKHELSAFFRKPDHKHYRVCKDQVLRNFLQAVQQNLRG | not soluble |
| QPTAPKDFSSGFWDFNDGTTQGFGVNPDSPITAINVENANNALKISNLNSKGSNDLSEGNFWANVRISADIWGQSINIYGDTKLTMDVIAPTPVNVSIAAIPQSSTHGWGNPTRAIRVWTNNFVAQTDGTYKATLTISTNDSPNFNTIATDAADSVVTNMILFVGSNSDNISLDNIKFTK | soluble |
| QQGNPNLSSPQPILDTIYKLLSEQEQTLVQMIHEQSLLLNRLPPTLDENSLAPLKSLSQKQITLSGQMNTEMSALDATKKGMILEPTDLAKLFALKQDLQIQFKQLSLLHNEIQSILNPQHSAPKPNVALVLKSQPFPVVISKGKQLGENQLVVLVLTGARSNFHINGPVKATMICDSHPTNKNNPTTPLEMDSQPIYPATLTAHFPLKFLAGTRKCSVNLKFGVNIRDLDNVTTTVESDASNPFVVITNECQWEGSAGVLLKKDAFDGQLEITWAQFINTLQRHFLIATKQDPVRPKRPLSSYDLKYIQTHFFGNRSIIHQQDFDKFWVWFGKSMQTLRYQRHISTLWQEGIIYGYMGRQEVNDALQNQDPGTFIIRFSERNPGQFGIAYIGVEMPARIKHYLVQPNDTAAAKKTFPDFLSEHSQFVNLLQWTKDTNGAPRFLKLHKDTALGSFAPKRTAPVPVGGYEPLNS | soluble |
| QSELTQPRSVSGSPGQSVTISCTGTSRDVGGYNYVSWYQQHPGKAPKLIIHDVIERSSGVPDRFSGSKSGNTASLTISGLQAEDEADYYCWSFAGSYYVFGTGTDVTVLGQPKANPTVTLFPPSSEELQANKATLVCLISDFYPGAVTVAWKADGSPVKAGVETTKPSKQSNNKYAASSYLSLTPEQWKSHRSYSCQVTHEGNTVEKTVAPT | soluble |

— the DeepSol protein solubility set
